Measured values published in doi:10.1101/2019.12.17.879908.

Key:
[1] = molecular target: Dimethylformamidase (DMFase) large subunit expressed and purified without the small subunit (Paracoccus sp. strain DMF); test: SEC
[2] = molecular target: Dimethylformamidase (DMFase) α2β2 complex, recombinant wild type (Paracoccus sp. strain DMF); test: cryo-EM structure

Row | Substance | stoichiometry N [1] | stoichiometry N [2]
1 | Dimethylformamidase (DMFase) large subunit expressed and purified without the small subunit (natural protein) | 2 | 
2 | Dimethylformamidase (DMFase) α2β2 complex, recombinant wild type |  | 2
